Where two headings read alike, the source gives them in different places.
Columns and labels:
[1] = molecular target: T1, wildtype feline IL-31 protein (Feline_IL31_wildtype) (feline); assay: Biacore, feline IL-31 chip, mAb 100 nM, share of points within parent mean +/-3 SD; design: key: % of mutant data points within parent mAb mean ±3 SD
T1 construct: Full length feline IL-31 with C-terminal His tag, secreted from ExpiCHO cells; also called fIL-31
T1 chain: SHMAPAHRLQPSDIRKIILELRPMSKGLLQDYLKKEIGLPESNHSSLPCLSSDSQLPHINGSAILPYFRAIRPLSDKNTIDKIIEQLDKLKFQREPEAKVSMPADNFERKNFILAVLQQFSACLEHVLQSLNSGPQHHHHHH
Source text: The region of an antibody responsible for antigen recognition represents the paratope. A paratope is created by a combination of amino acids in the complementarity determining regions (CDRs) of both the heavy and light chain variable regions. The binding between antibody and antigen is often mediated by side chains of CDR residues with side chains or carbohydrate moieties of the antigen. To help define critical side chains involved in antibody recognition alanine scanning mutagenesis was performed on each CDR residue in both the heavy and light chain. These mutants were then individually tested for the ability to bind feline IL-31 using the biacore and evaluated for inhibition of IL-31-mediated signaling in the FCWF-4 cell based assay.
(§1) The mean response unit of four replicates of the parent mAb+/−3 standard deviations was used to generate parameters to define a threshold of response units comprising both the on- and off-rates antibody binding (FIG. 22). The percentage of data points for each mutant fell within this threshold was then used to define a “% similarity score” (FIG. 23).

[2] = molecular target: T1, wildtype feline IL-31 protein …; assay: cell-based or functional assay
[3] = molecular target: T1, wildtype feline IL-31 protein …; assay: cell-based or functional assay
[4] = molecular target: T1, wildtype feline IL-31 protein …; assay: Biacore, feline IL-31 chip, mAb 100 nM, share of points within parent mean +/-3 SD; design: key: % of mutant data points within parent mAb mean ±3 SD
Source text: as §1

B1: A03 (antibody, V domains shown)
VH: QVLLVQSGAEVRTPGASVKIFCKASGYSFTSYTIHWLRQAPAQGLEWMGNINPTSGYTENNQRFKDRLTLTADTSTNTAYMELSSLRSADTAMYYCARWGFKYDGEWSFDVWGAGTTVTVSS
VL: EIQMTQSPSSLSASPGDRVTITCRASQAISIWLSWYQQKPGNIPKVLINKASNLHIGVPSRFSGSGSGTDFTLTISSLEPEDAATYYCLQSQTYPLTFGGGTKLEIK
notes: sample ID reads A03 although it stands between A07 and A09
[1]
  Binding Similarity score: 58
[2]
  % Inhibition Relative to Parent (pSTAT, FCWF-4 cells): 52.9%

B2: A65 (antibody, V domains shown)
VH: QVLLVQSGAEVRTPGASVKIFCKASGYSFTSYTIHWLRQAPAQGLEWMGNINPTSGYTENNQRFKDRLTLTADTSTNTAYMELSSLRSADTAMYYCARWGFKYDGEWSFDAWGAGTTVTVSS
VL: EIQMTQSPSSLSASPGDRVTITCRASQGISIWLSWYQQKPGNIPKVLINKASNLHIGVPSRFSGSGSGTDFTLTISSLEPEDAATYYCLQSQTYPLTFGGGTKLEIK
[3]
  % Inhibition Relative to Parent (pSTAT, FCWF-4 cells): 26.8%
[4]
  Binding Similarity score: 50.5

B3: A10 (antibody, V domains shown)
VH: QVLLVQSGAEVRTPGASVKIFCKASGYSFTSYTIHWLRQAPAQGLEWMGNINPTSGYTENNQRFKDRLTLTADTSTNTAYMELSSLRSADTAMYYCARWGFKYDGEWSFDVWGAGTTVTVSS
VL: EIQMTQSPSSLSASPGDRVTITCRASQGIAIWLSWYQQKPGNIPKVLINKASNLHIGVPSRFSGSGSGTDFTLTISSLEPEDAATYYCLQSQTYPLTFGGGTKLEIK
[1]
  Binding Similarity score: 63.4
[2]
  % Inhibition Relative to Parent (pSTAT, FCWF-4 cells): 26%

B4: A64 (antibody, V domains shown)
VH: QVLLVQSGAEVRTPGASVKIFCKASGYSFTSYTIHWLRQAPAQGLEWMGNINPTSGYTENNQRFKDRLTLTADTSTNTAYMELSSLRSADTAMYYCARWGFKYDGEWSFAVWGAGTTVTVSS
VL: EIQMTQSPSSLSASPGDRVTITCRASQGISIWLSWYQQKPGNIPKVLINKASNLHIGVPSRFSGSGSGTDFTLTISSLEPEDAATYYCLQSQTYPLTFGGGTKLEIK
[3]
  % Inhibition Relative to Parent (pSTAT, FCWF-4 cells): 6.9%
[4]
  Binding Similarity score: 2.7

B5: A62 (antibody, V domains shown)
VH: QVLLVQSGAEVRTPGASVKIFCKASGYSFTSYTIHWLRQAPAQGLEWMGNINPTSGYTENNQRFKDRLTLTADTSTNTAYMELSSLRSADTAMYYCARWGFKYDGEWAFDVWGAGTTVTVSS
VL: EIQMTQSPSSLSASPGDRVTITCRASQGISIWLSWYQQKPGNIPKVLINKASNLHIGVPSRFSGSGSGTDFTLTISSLEPEDAATYYCLQSQTYPLTFGGGTKLEIK
[3]
  % Inhibition Relative to Parent (pSTAT, FCWF-4 cells): 22.6%
[4]
  Binding Similarity score: 46.1

B6: A15 (antibody, V domains shown)
VH: QVLLVQSGAEVRTPGASVKIFCKASGYSFTSYTIHWLRQAPAQGLEWMGNINPTSGYTENNQRFKDRLTLTADTSTNTAYMELSSLRSADTAMYYCARWGFKYDGEWSFDVWGAGTTVTVSS
VL: EIQMTQSPSSLSASPGDRVTITCRASQGISIWLSWYQQKPGNIPKVLINAASNLHIGVPSRFSGSGSGTDFTLTISSLEPEDAATYYCLQSQTYPLTFGGGTKLEIK
[1]
  Binding Similarity score: 11.6
[2]
  % Inhibition Relative to Parent (pSTAT, FCWF-4 cells): 34.1%

B7: A09 (antibody, V domains shown)
VH: QVLLVQSGAEVRTPGASVKIFCKASGYSFTSYTIHWLRQAPAQGLEWMGNINPTSGYTENNQRFKDRLTLTADTSTNTAYMELSSLRSADTAMYYCARWGFKYDGEWSFDVWGAGTTVTVSS
VL: EIQMTQSPSSLSASPGDRVTITCRASQGASIWLSWYQQKPGNIPKVLINKASNLHIGVPSRFSGSGSGTDFTLTISSLEPEDAATYYCLQSQTYPLTFGGGTKLEIK
[1]
  Binding Similarity score: 100
[2]
  % Inhibition Relative to Parent (pSTAT, FCWF-4 cells): 28%

B8: A60 (antibody, V domains shown)
VH: QVLLVQSGAEVRTPGASVKIFCKASGYSFTSYTIHWLRQAPAQGLEWMGNINPTSGYTENNQRFKDRLTLTADTSTNTAYMELSSLRSADTAMYYCARWGFKYDGEASFDVWGAGTTVTVSS
VL: EIQMTQSPSSLSASPGDRVTITCRASQGISIWLSWYQQKPGNIPKVLINKASNLHIGVPSRFSGSGSGTDFTLTISSLEPEDAATYYCLQSQTYPLTFGGGTKLEIK
[3]
  % Inhibition Relative to Parent (pSTAT, FCWF-4 cells): -8.7%
[4]
  Binding Similarity score: 2.4

B9: A05 (antibody, V domains shown)
VH: QVLLVQSGAEVRTPGASVKIFCKASGYSFTSYTIHWLRQAPAQGLEWMGNINPTSGYTENNQRFKDRLTLTADTSTNTAYMELSSLRSADTAMYYCARWGFKYDGEWSFDVWGAGTTVTVSS
VL: EIQMTQSPSSLSASPGDRVTITCAASQGISIWLSWYQQKPGNIPKVLINKASNLHIGVPSRFSGSGSGTDFTLTISSLEPEDAATYYCLQSQTYPLTFGGGTKLEIK
[1]
  Binding Similarity score: 25.6
[2]
  % Inhibition Relative to Parent (pSTAT, FCWF-4 cells): 0%

B10: A13 (antibody, V domains shown)
VH: QVLLVQSGAEVRTPGASVKIFCKASGYSFTSYTIHWLRQAPAQGLEWMGNINPTSGYTENNQRFKDRLTLTADTSTNTAYMELSSLRSADTAMYYCARWGFKYDGEWSFDVWGAGTTVTVSS
VL: EIQMTQSPSSLSASPGDRVTITCRASQGISIALSWYQQKPGNIPKVLINKASNLHIGVPSRFSGSGSGTDFTLTISSLEPEDAATYYCLQSQTYPLTFGGGTKLEIK
[1]
  Binding Similarity score: 2.4
[2]
  % Inhibition Relative to Parent (pSTAT, FCWF-4 cells): 4.4%

B11: A58 (antibody, V domains shown)
VH: QVLLVQSGAEVRTPGASVKIFCKASGYSFTSYTIHWLRQAPAQGLEWMGNINPTSGYTENNQRFKDRLTLTADTSTNTAYMELSSLRSADTAMYYCARWGFKYDAEWSFDVWGAGTTVTVSS
VL: EIQMTQSPSSLSASPGDRVTITCRASQGISIWLSWYQQKPGNIPKVLINKASNLHIGVPSRFSGSGSGTDFTLTISSLEPEDAATYYCLQSQTYPLTFGGGTKLEIK
[3]
  % Inhibition Relative to Parent (pSTAT, FCWF-4 cells): 15.3%
[4]
  Binding Similarity score: 16.7

B12: A16 (antibody, V domains shown)
VH: QVLLVQSGAEVRTPGASVKIFCKASGYSFTSYTIHWLRQAPAQGLEWMGNINPTSGYTENNQRFKDRLTLTADTSTNTAYMELSSLRSADTAMYYCARWGFKYDGEWSFDVWGAGTTVTVSS
VL: EIQMTQSPSSLSASPGDRVTITCRASQGISIWLSWYQQKPGNIPKVLINKAANLHIGVPSRFSGSGSGTDFTLTISSLEPEDAATYYCLQSQTYPLTFGGGTKLEIK
[1]
  Binding Similarity score: 58
[2]
  % Inhibition Relative to Parent (pSTAT, FCWF-4 cells): 69.3%

B13: A06 (antibody, V domains shown)
VH: QVLLVQSGAEVRTPGASVKIFCKASGYSFTSYTIHWLRQAPAQGLEWMGNINPTSGYTENNQRFKDRLTLTADTSTNTAYMELSSLRSADTAMYYCARWGFKYDGEWSFDVWGAGTTVTVSS
VL: EIQMTQSPSSLSASPGDRVTITCRAAQGISIWLSWYQQKPGNIPKVLINKASNLHIGVPSRFSGSGSGTDFTLTISSLEPEDAATYYCLQSQTYPLTFGGGTKLEIK
[1]
  Binding Similarity score: 89.7
[2]
  % Inhibition Relative to Parent (pSTAT, FCWF-4 cells): 40%

B14: A12 (antibody, V domains shown)
VH: QVLLVQSGAEVRTPGASVKIFCKASGYSFTSYTIHWLRQAPAQGLEWMGNINPTSGYTENNQRFKDRLTLTADTSTNTAYMELSSLRSADTAMYYCARWGFKYDGEWSFDVWGAGTTVTVSS
VL: EIQMTQSPSSLSASPGDRVTITCRASQGISAWLSWYQQKPGNIPKVLINKASNLHIGVPSRFSGSGSGTDFTLTISSLEPEDAATYYCLQSQTYPLTFGGGTKLEIK
[1]
  Binding Similarity score: 25.7
[2]
  % Inhibition Relative to Parent (pSTAT, FCWF-4 cells): 19.3%

B15: A63 (antibody, V domains shown)
VH: QVLLVQSGAEVRTPGASVKIFCKASGYSFTSYTIHWLRQAPAQGLEWMGNINPTSGYTENNQRFKDRLTLTADTSTNTAYMELSSLRSADTAMYYCARWGFKYDGEWSADVWGAGTTVTVSS
VL: EIQMTQSPSSLSASPGDRVTITCRASQGISIWLSWYQQKPGNIPKVLINKASNLHIGVPSRFSGSGSGTDFTLTISSLEPEDAATYYCLQSQTYPLTFGGGTKLEIK
[3]
  % Inhibition Relative to Parent (pSTAT, FCWF-4 cells): -6%
[4]
  Binding Similarity score: 2.9

B16: A18 (antibody, V domains shown)
VH: QVLLVQSGAEVRTPGASVKIFCKASGYSFTSYTIHWLRQAPAQGLEWMGNINPTSGYTENNQRFKDRLTLTADTSTNTAYMELSSLRSADTAMYYCARWGFKYDGEWSFDVWGAGTTVTVSS
VL: EIQMTQSPSSLSASPGDRVTITCRASQGISIWLSWYQQKPGNIPKVLINKASNAHIGVPSRFSGSGSGTDFTLTISSLEPEDAATYYCLQSQTYPLTFGGGTKLEIK
[1]
  Binding Similarity score: 100
[2]
  % Inhibition Relative to Parent (pSTAT, FCWF-4 cells): 49.4%

B17: A07 (antibody, V domains shown)
VH: QVLLVQSGAEVRTPGASVKIFCKASGYSFTSYTIHWLRQAPAQGLEWMGNINPTSGYTENNQRFKDRLTLTADTSTNTAYMELSSLRSADTAMYYCARWGFKYDGEWSFDVWGAGTTVTVSS
VL: EIQMTQSPSSLSASPGDRVTITCRASAGISIWLSWYQQKPGNIPKVLINKASNLHIGVPSRFSGSGSGTDFTLTISSLEPEDAATYYCLQSQTYPLTFGGGTKLEIK
[1]
  Binding Similarity score: 74.4
[2]
  % Inhibition Relative to Parent (pSTAT, FCWF-4 cells): 93.6%

Source: patent US20250136677A1 (ZOETIS SERVICES, published 2025)
